Molecular target: T1, EhCFIm25 wild type (Entamoeba histolytica, UniProt C4M2T1 1-255)
T1 sequence: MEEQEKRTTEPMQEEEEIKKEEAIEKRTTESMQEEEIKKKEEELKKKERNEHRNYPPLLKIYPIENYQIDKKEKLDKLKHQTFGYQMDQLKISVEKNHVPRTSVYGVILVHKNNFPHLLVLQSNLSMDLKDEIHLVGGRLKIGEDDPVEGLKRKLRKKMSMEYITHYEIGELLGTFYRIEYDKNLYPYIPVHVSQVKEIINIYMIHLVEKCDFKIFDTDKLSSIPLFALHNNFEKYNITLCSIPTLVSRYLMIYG
Experiment: EMSA; REMSA: RNA probe (100 ng/ul) with 20 ug EhCFIm25 or 50 ug extract, room temperature 20 min, 10% non-denaturing PAGE, LightShift Chemiluminescent RNA EMSA Kit; buffer, salt and pH not stated
Conditions: protein: recombinant, tags: 6xHis (pRSET vector), chain copies: 2

B1: Ehthio-3'UTR (ssRNA)
RNA: AAGGGUAGGAAAAAUUGAAACAUUAAAAGAUUUUCCUUCUUUUAAAGACAGAGUAAAAGAACCAUAUGUUGCUCCAAAAUAUGAAGAAGAAGAACUUUAAAUAAUAACUUUUUCAAGAACAAAAAUUAAUAACAAAUUUAUUUUAUUUGAUUUUACAAUUCUUGUUAUUAUAUGUUGAUAUUUAUUUAAAAUACUCUUUCUUUUAAUUUUUGUUUUUAUUAACAAUAUAUUUUAUAUUAAAUAAAGUUUAAUGAAAAAAAAGUAUUAAAAAGUUGUAAUAAACCUAAUUAAUAAAUGUUU
B1: binds (label: biotin (Biotin RNA Labeling Mix)).

B2: GUUG-probe (ssRNA)
RNA: AAUAAUACGACUCACUAUAGACGAAAUGGUUGUCAACGACGAUUA
B2: binds (label: biotin as probe).

B3: CAAC-probe (ssRNA)
RNA: AAUAAUACGACUCACUAUAGACGAAAUGCAACUCAACGACGAUUA
B3: no binding (label: biotin).

Reference: paper PMC5890266, “Targeting the polyadenylation factor EhCFIm25 with RNA aptamers controls survival in Entamoeba histolytica”
